Patent publication US20090105152A1
Numbered stars: 1 amine (or outer) side, 2 acyl side, 3 side chain; on linkers, the order of the positions; unused ones are H or OH. Square brackets hold non-standard residues; d marks the D form. Asp(NHcPr) = N-omega-cyclopropylasparagine, O=C(C[C@H](N[*:1])C(=O)[*:2])NC1CC1; Asp(NHPen) = N-omega-pentylasparagine, CCCCCNC(=O)C[C@H](N[*:1])C(=O)[*:2]; Phe(3-F) = N[C@@H](Cc1cccc(F)c1)C(=O)O; Phe(4-F) = N[C@@H](Cc1ccc(F)cc1)C(=O)O; Arg(Me) = CNC(=N)NCCC[C@H](N)C(=O)O; Dap(CONH2) = NC(=O)NC[C@H](N)C(=O)O; Hyp = O=C(O)[C@@H]1C[C@@H](O)CN1; NMeS = CN[C@@H](CO)C(=O)O; Aib = CC(C)(N)C(=O)O; azaGly = NNC(=O)O

Target: human OT7T175 (metastin receptor) (human) (UniProt Q969F8)
Sequence (Q969F8 whole entry L364H): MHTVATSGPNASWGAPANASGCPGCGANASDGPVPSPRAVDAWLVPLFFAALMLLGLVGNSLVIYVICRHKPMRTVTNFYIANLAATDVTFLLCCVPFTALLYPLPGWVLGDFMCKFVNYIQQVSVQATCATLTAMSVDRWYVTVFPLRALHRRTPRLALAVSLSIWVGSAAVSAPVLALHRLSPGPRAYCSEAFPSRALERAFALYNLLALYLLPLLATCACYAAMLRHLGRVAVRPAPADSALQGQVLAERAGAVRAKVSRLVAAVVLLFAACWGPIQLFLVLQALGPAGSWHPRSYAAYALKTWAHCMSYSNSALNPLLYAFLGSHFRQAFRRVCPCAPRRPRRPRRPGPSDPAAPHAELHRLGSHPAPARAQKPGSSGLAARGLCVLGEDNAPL
Assay: cell-based or functional assay

intracellular Ca ion level-increasing activity [specific activity to Metastin (1-54)] (relative to Metastin (1-54)) | Binder
2.7 | Ac-[dY]ENT[Phe(4-F)][azaGly]L[Arg(Me)]W-NH2 (SMILES CNC(=N)NCCC[C@H](NC(=O)[C@H](CC(C)C)NC(=O)NNC(=O)[C@H](Cc1ccc(F)cc1)NC(=O)[C@@H](NC(=O)[C@H](CC(N)=O)NC(=O)[C@H](CCC(=O)O)NC(=O)[C@@H](Cc1ccc(O)cc1)NC(C)=O)[C@@H](C)O)C(=O)N[C@@H](Cc1c[nH]c2ccccc12)C(N)=O) [des(1)-Ac-[D-Tyr2,Glu3,Thr5,Phe(4F)6,AzaGly7,Arg(Me)9,Trp10]MS10]
1 | Ac-[dY][Hyp]N[NMeS]F[azaGly]L[Arg(Me)]W-NH2 (SMILES CNC(=N)NCCC[C@H](NC(=O)[C@H](CC(C)C)NC(=O)NNC(=O)[C@H](Cc1ccccc1)NC(=O)[C@H](CO)N(C)C(=O)[C@H](CC(N)=O)NC(=O)[C@@H]1C[C@@H](O)CN1C(=O)[C@@H](Cc1ccc(O)cc1)NC(C)=O)C(=O)N[C@@H](Cc1c[nH]c2ccccc12)C(N)=O) [des(1)-Ac-[D-Tyr2,Hyp3,NMeSer5,AzaGly7,Arg(Me)9,Trp10]MS10]
11.1 | {4‑(bis-(2-pyridylmethyl)aminomethyl)benzoyl}-F[azaGly]L[Arg(Me)]W-NH2 [des(1-5)-4-[Bis-(2-Pyridylmethyl)aminomethyl]benzoyl-[AzaGly7,Arg(Me)9,Trp10]MS10]
2.3 | Ac-[dY][Hyp]NT[Phe(4-F)][azaGly]L[Arg(Me)]W-NH2 (SMILES CNC(=N)NCCC[C@H](NC(=O)[C@H](CC(C)C)NC(=O)NNC(=O)[C@H](Cc1ccc(F)cc1)NC(=O)[C@@H](NC(=O)[C@H](CC(N)=O)NC(=O)[C@@H]1C[C@@H](O)CN1C(=O)[C@@H](Cc1ccc(O)cc1)NC(C)=O)[C@@H](C)O)C(=O)N[C@@H](Cc1c[nH]c2ccccc12)C(N)=O) [des(1)-Ac-[D-Tyr2,Hyp3,Thr5,Phe(4F)6,AzaGly7,Arg(Me)9,Trp10]MS10]
2.3 | Ac-[dY][Hyp]NT[dF][azaGly]L[Arg(Me)]W-NH2 [des(1)-Ac-[D-Tyr2,Hyp3,Thr5,D-Phe6,AzaGly7,Arg(Me)9,Trp10]MS10]
0.5 | Ac-[dY][Hyp]NAF[azaGly]L[Arg(Me)]W-NH2 (SMILES CNC(=N)NCCC[C@H](NC(=O)[C@H](CC(C)C)NC(=O)NNC(=O)[C@H](Cc1ccccc1)NC(=O)[C@H](C)NC(=O)[C@H](CC(N)=O)NC(=O)[C@@H]1C[C@@H](O)CN1C(=O)[C@@H](Cc1ccc(O)cc1)NC(C)=O)C(=O)N[C@@H](Cc1c[nH]c2ccccc12)C(N)=O) [des(1)-Ac-[D-Tyr2,Hyp3,Ala5,AzaGly7,Arg(Me)9,Trp10]MS10]
1.1 | Ac-[dY][Hyp]HTF[azaGly]L[Arg(Me)]W-NH2 (SMILES CNC(=N)NCCC[C@H](NC(=O)[C@H](CC(C)C)NC(=O)NNC(=O)[C@H](Cc1ccccc1)NC(=O)[C@@H](NC(=O)[C@H](Cc1c[nH]cn1)NC(=O)[C@@H]1C[C@@H](O)CN1C(=O)[C@@H](Cc1ccc(O)cc1)NC(C)=O)[C@@H](C)O)C(=O)N[C@@H](Cc1c[nH]c2ccccc12)C(N)=O) [des(1)-Ac-[D-Tyr2,Hyp3,His4,Thr5,AzaGly7,Arg(Me)9,Trp10]MS10]
3.4 | Ac-[dY]KNT[Phe(4-F)][azaGly]L[Arg(Me)]W-NH2 (SMILES CNC(=N)NCCC[C@H](NC(=O)[C@H](CC(C)C)NC(=O)NNC(=O)[C@H](Cc1ccc(F)cc1)NC(=O)[C@@H](NC(=O)[C@H](CC(N)=O)NC(=O)[C@H](CCCCN)NC(=O)[C@@H](Cc1ccc(O)cc1)NC(C)=O)[C@@H](C)O)C(=O)N[C@@H](Cc1c[nH]c2ccccc12)C(N)=O) [des(1)-Ac-[D-Tyr2,Lys3,Thr5,Phe(4F)6,AzaGly7,Arg(Me)9,Trp10]MS10]
1.5 | Ac-[dY][Hyp]N[Hyp]F[azaGly]L[Arg(Me)]W-NH2 (SMILES CNC(=N)NCCC[C@H](NC(=O)[C@H](CC(C)C)NC(=O)NNC(=O)[C@H](Cc1ccccc1)NC(=O)[C@@H]1C[C@@H](O)CN1C(=O)[C@H](CC(N)=O)NC(=O)[C@@H]1C[C@@H](O)CN1C(=O)[C@@H](Cc1ccc(O)cc1)NC(C)=O)C(=O)N[C@@H](Cc1c[nH]c2ccccc12)C(N)=O) [des(1)-Ac-[D-Tyr2,Hyp3,Hyp5,AzaGly7,Arg(Me)9,Trp10]MS10]
2.3 | Ac-[dY]GNT[Phe(4-F)][azaGly]L[Arg(Me)]W-NH2 (SMILES CNC(=N)NCCC[C@H](NC(=O)[C@H](CC(C)C)NC(=O)NNC(=O)[C@H](Cc1ccc(F)cc1)NC(=O)[C@@H](NC(=O)[C@H](CC(N)=O)NC(=O)CNC(=O)[C@@H](Cc1ccc(O)cc1)NC(C)=O)[C@@H](C)O)C(=O)N[C@@H](Cc1c[nH]c2ccccc12)C(N)=O) [des(1)-Ac-[D-Tyr2,Gly3,Thr5,Phe(4F)6,AzaGly7,Arg(Me)9,Trp10]MS10]
3.3 | Ac-[dY][Aib]NT[Phe(3-F)][azaGly]L[Arg(Me)]W-NH2 (SMILES CNC(=N)NCCC[C@H](NC(=O)[C@H](CC(C)C)NC(=O)NNC(=O)[C@H](Cc1cccc(F)c1)NC(=O)[C@@H](NC(=O)[C@H](CC(N)=O)NC(=O)C(C)(C)NC(=O)[C@@H](Cc1ccc(O)cc1)NC(C)=O)[C@@H](C)O)C(=O)N[C@@H](Cc1c[nH]c2ccccc12)C(N)=O) [des(1)-Ac-[D-Tyr2,Aib3,Thr5,Phe(3F)6,AzaGly7,Arg(Me)9,Trp10]MS10]
0.5 | Ac-[dY][Hyp]N[dA]F[azaGly]L[Arg(Me)]W-NH2 (SMILES CNC(=N)NCCC[C@H](NC(=O)[C@H](CC(C)C)NC(=O)NNC(=O)[C@H](Cc1ccccc1)NC(=O)[C@@H](C)NC(=O)[C@H](CC(N)=O)NC(=O)[C@@H]1C[C@@H](O)CN1C(=O)[C@@H](Cc1ccc(O)cc1)NC(C)=O)C(=O)N[C@@H](Cc1c[nH]c2ccccc12)C(N)=O) [des(1)-Ac-[D-Tyr2,Hyp3,D-Ala5,AzaGly7,Arg(Me)9,Trp10]MS10]
0.5 | Ac-[dY][Hyp]NGF[azaGly]L[Arg(Me)]W-NH2 (SMILES CNC(=N)NCCC[C@H](NC(=O)[C@H](CC(C)C)NC(=O)NNC(=O)[C@H](Cc1ccccc1)NC(=O)CNC(=O)[C@H](CC(N)=O)NC(=O)[C@@H]1C[C@@H](O)CN1C(=O)[C@@H](Cc1ccc(O)cc1)NC(C)=O)C(=O)N[C@@H](Cc1c[nH]c2ccccc12)C(N)=O) [des(1)-Ac-[D-Tyr2,Hyp3,Gly5,AzaGly7,Arg(Me)9,Trp10]MS10]
0.9 | Ac-[dY][Hyp][dN]TF[azaGly]L[Arg(Me)]W-NH2 [des(1)-Ac-[D-Tyr2,Hyp3,D-Asn4,Thr5,AzaGly7,Arg(Me)9,Trp10]MS10]
0.8 | Ac-[dY][Hyp][Dap(CONH2)]TF[azaGly]L[Arg(Me)]W-NH2 (SMILES CNC(=N)NCCC[C@H](NC(=O)[C@H](CC(C)C)NC(=O)NNC(=O)[C@H](Cc1ccccc1)NC(=O)[C@@H](NC(=O)[C@H](CNC(N)=O)NC(=O)[C@@H]1C[C@@H](O)CN1C(=O)[C@@H](Cc1ccc(O)cc1)NC(C)=O)[C@@H](C)O)C(=O)N[C@@H](Cc1c[nH]c2ccccc12)C(N)=O) [des(1)-Ac-[D-Tyr2,Hyp3,Alb4,Thr5,AzaGly7,Arg(Me)9,Trp10]MS10]
1.4 | Ac-[dY][Hyp]NTF[azaGly]LRW-NH2 (SMILES CC(=O)N[C@H](Cc1ccc(O)cc1)C(=O)N1C[C@H](O)C[C@H]1C(=O)N[C@@H](CC(N)=O)C(=O)N[C@H](C(=O)N[C@@H](Cc1ccccc1)C(=O)NNC(=O)N[C@@H](CC(C)C)C(=O)N[C@@H](CCCNC(=N)N)C(=O)N[C@@H](Cc1c[nH]c2ccccc12)C(N)=O)[C@@H](C)O) [des(1)-Ac-[D-Tyr2,Hyp3,Thr5,AzaGly7,Trp10]MS10]
2.9 | Ac-[dY][Aib]NT[Phe(4-F)][azaGly]L[Arg(Me)]W-NH2 (SMILES CNC(=N)NCCC[C@H](NC(=O)[C@H](CC(C)C)NC(=O)NNC(=O)[C@H](Cc1ccc(F)cc1)NC(=O)[C@@H](NC(=O)[C@H](CC(N)=O)NC(=O)C(C)(C)NC(=O)[C@@H](Cc1ccc(O)cc1)NC(C)=O)[C@@H](C)O)C(=O)N[C@@H](Cc1c[nH]c2ccccc12)C(N)=O) [des(1)-Ac-[D-Tyr2,Aib3,Thr5,Phe(4F)6,AzaGly7,Arg(Me)9,Trp10]MS10]
0.8 | Ac-[dY][Hyp]QTF[azaGly]L[Arg(Me)]W-NH2 (SMILES CNC(=N)NCCC[C@H](NC(=O)[C@H](CC(C)C)NC(=O)NNC(=O)[C@H](Cc1ccccc1)NC(=O)[C@@H](NC(=O)[C@H](CCC(N)=O)NC(=O)[C@@H]1C[C@@H](O)CN1C(=O)[C@@H](Cc1ccc(O)cc1)NC(C)=O)[C@@H](C)O)C(=O)N[C@@H](Cc1c[nH]c2ccccc12)C(N)=O) [des(1)-Ac-[D-Tyr2,Hyp3,Gln4,Thr5,AzaGly7,Arg(Me)9,Trp10]MS10]
1.6 | Ac-[dY][dW][Asp(NHcPr)]TF[azaGly]L[Arg(Me)]W-NH2 (SMILES CNC(=N)NCCC[C@H](NC(=O)[C@H](CC(C)C)NC(=O)NNC(=O)[C@H](Cc1ccccc1)NC(=O)[C@@H](NC(=O)[C@H](CC(=O)NC1CC1)NC(=O)[C@@H](Cc1c[nH]c2ccccc12)NC(=O)[C@@H](Cc1ccc(O)cc1)NC(C)=O)[C@@H](C)O)C(=O)N[C@@H](Cc1c[nH]c2ccccc12)C(N)=O) [des(1)-Ac-[D-Tyr2,D-Trp3,Asp(NHcPr)4,Thr5,AzaGly7,Arg(Me)9,Trp10]MS10]
0.7 | Ac-[dY][dW][Asp(NHPen)]TF[azaGly]L[Arg(Me)]W-NH2 (SMILES CCCCCNC(=O)C[C@H](NC(=O)[C@@H](Cc1c[nH]c2ccccc12)NC(=O)[C@@H](Cc1ccc(O)cc1)NC(C)=O)C(=O)N[C@H](C(=O)N[C@@H](Cc1ccccc1)C(=O)NNC(=O)N[C@@H](CC(C)C)C(=O)N[C@@H](CCCNC(=N)NC)C(=O)N[C@@H](Cc1c[nH]c2ccccc12)C(N)=O)[C@@H](C)O) [des(1)-Ac-[D-Tyr2,D-Trp3,Asp(NHPen)4,Thr5,AzaGly7,Arg(Me)9,Trp10]MS10]
